# Experimental data taken from article PMC8913689, “Atomic force microscopy-single-molecule force spectroscopy unveils GPCR cell surface architecture” (Communications Biology, 2022).
# Target: the molecule itself
# Test: AFM single-molecule force spectroscopy (AFM-SMFS); living WTT-CHO cells transfected with 1 µg of HA-GPCR vector, basal state, 37 °C; anti-HA antibody on the AFM tip pulls the HA-receptor out of the membrane; unfolding distances fitted by a Gaussian mixture (BIC) and each population assigned to an oligomeric state by the receptor's theoretical length
protein,measurement,value
"HA-angiotensin II subtype 1a receptor (receptor, UniProt P25095 1-359, looked up, angiotensin II subtype 1a receptor, family A GPCR; theoretical contour length of the HA-tagged receptor 147 nm at 0.4 nm per amino acid; The subtype name 1a points to a rodent receptor (rat P25095 or mouse P29754, both 359 residues); 147 nm (about 368 residues) fits 359 residues plus a 9-residue HA tag; also called HA-AT1a-R; AT1a-R; source: WTT-CHO cells, transiently transfected (1 µg vector); …) MALNSSAEDGIKRIQDDCPKAGRHSYIFVMIPTLYSIIFVVGIFGNSLVVIVIYFYMKLKTVASVFLLNLALADLCFLLTLPLWAVYTAMEYRWPFGNHLCKIASASVSFNLYASVFLLTCLSIDRYLAIVHPMKSRLRRTMLVAKVTCIIIWLMAGLASLPAVIHRNVYFIENTNITVCAFHYESRNSTLPIGLGLTKNILGFLFPFLIILTSYTLIWKALKKAYEIQKNKPRNDDIFRIIMAIVLFFFFSWVPHQIFTFLDVLIQLGVIHDCKISDIVDTAMPITICIAYFNNCLNPLFYGFLGKKFKKYFLQLLKYIPPKAKSHSSLSTKMSTLSYRPSDNMSSSAKKPASCFEVE",stoichiometry N,2
